Measured values: the DeepSol protein solubility set

Experiment: soluble on expression in E. coli; label from the status in PepcDB or PDB records

Sequence	soluble on expression in E. coli
DQVSRFRLLGGNQVRPLAGGDEAYPAMMQAIREARVSIAMQSYIFDCDPIGREMAQALVEAQQRGVQVRVLIDAIGSKYSRPPIVRTLVRGGVRTARFMTNPLGVMRMPYANLRSHRKILVVDGHVGFTGGMNIRAAFVTALAGKAANGDTHFRLEGPVVAQLMAVFAHDWNFTTRESLEGPTWFPPAPERAPGSVPMRCVASGPDSALGSTHKM	not soluble
TDNFSWSTNLNFSYNDNKIKELVDDLPNGLTLTDFGGAKVILKEGGHYGDLYVRHLMRDENGKPLQNEKGEPIVSGDSMDELEYAGNMNAKVNMGWTNTFRYKDFSLSFLIDAKFGGKVISMTEAALDGWGVSKRSGEARDAGGITVDGVKFDADKYYRTTGNNNFNSPYAVENYVYDATNIRLREVTFGYTFRNLLGAGKNLTAAIIGRNLFFFHKDAPMDPDVSAGTGNGIQGVDMFALPTSRSFGLNLKLNF	not soluble
MSLRKDLSEKVLIADGAMGTLLYSYGVDRSFEELNLSHPEDIVAIHKAYIGAGADIIQTNTYGANYIKLARYGLEDEVKRINQAAIRLAKEAARGTGTYIFGTIGGINGAVDARLPAAPLEEIKRSFREQLYCFLLDGVDAILLETYYDLDELKTVLKILRETTDLPVVANVSMHEPGILQNGKKLPDALEELIALGADVVGINCRLGPYHMARALETVPLYDNAYLAVYPNASLPEMQEGKVIYQSDTDYFEHYGEVFRQEGARIIGGCCGTTPDHIRALRKGLETTKPILEKEVRPILELVPEEVEDVDSGERLLDKVKERLTILVELDPPRTFDTTKFFEGAQALDEAGVDAITISDNSLATPRISNMALASILKHEYGIKPLIHLTTRDHNLVGMHSHVMGFHKLGLHDVLAITGDPTKVGDFPGASSVFDLRSVELVQLIKKFNDGISYTGKSLKEKARFHVGAAFNPNVLNLEKAVRLIERKVEYGADYIITQPIYDVNKAILLKEALQKANIDVPLFIGVMPLLSSRNAEFLHNEVPGIRLTDDVRERMREAEEHGHANEEGMAIARELVDAICEHFQGIYIITPFLRYDLSIELAKYAQNKQQVQIGSKEGHHHHHH	soluble
SLKIFTSKKGQLSQLKQQKFKLEKDIQRLFEENLTLLSGYIFIRSEFSIKNSRIDTLAFDPETQAFVIIEYKRQQNSSVVDQGISYLNLMLEYKADFIVEYNEKQKVPLKRNDVDWSQSKVIFVSPAFNDFQIQATNFKDLPIELWEVNRFDNDIITLNIINKSKSAPNIKAVSNEKREEFSILKEIKVYQESDHLADKTDFIQELYEDFKQGILNLDPDIEINTRKLYIAFKKDRNIADIRIQQKNLKIWINLPYGELDDPKNLAKNVSNTGHWGNGDYEITIESTQYLEYIMSLIKQAIKD	soluble
MITVVIADRLGKGQNVAKGVEQAGGRAVVVPGMGADMRLGDVMQQEKADLGISFCGSGGAGALTAATKYGYPERHGMRSIEEGVTAINDGKTVLGFGFMDQEELGKRVTEAFIKKHGA	not soluble
MGSDKIHHHHHHMDLITKQDGTTLHYSTMGQGYPVVLVHTAFDNYAVFNDLAKVLAKSFQVVLIDLRGHGYSDKPRNIEFYDFADDIKFLLDAIYIDEAAFIGHEMGALIAADMSVRNPGYISSITLVNPTSIEGELPEERLFRKYAHKIRNWEDDKQEKFLDKRRYYKARKMNKFLKHVVDTNSISTKEEIQAVKDVFKSEGIADVFKHVQVPTLIVAGEHGERTTTLEAKEVADLIQHCEFNVYQHSSAYPFVEEQAQFTQETTNFIQQHAPK	not soluble
MGSDKIHHHHHHMRALDIAATGMSAQQLRVDVISNNIANMSTTGYSPRRADFADLHYQQMVRAGAINASDGTVVPAGVQIGLGVRPAAVTVTWEQGTLGATGGQLDVAIEGRGYLEVTLPSGDNAYTRDGALQRTGDGLIVTNDGFEVNPGITIPDDAQEITINANGEVFASFRGEIQPQLLGQLNMVRFTNDNGLEAIGSNLFLETGASGAPLAGDPGEDGMGTFRQGYVEQSSVDAVREITDLIEAQRGYELNAKVLTAADQILGATTQVR	not soluble
MNLNIDWSKDFQEFQEILNSGIHPEWLYCAKANLVLEPAYTGEGKQFFSTQDIIYASKIIPFFLEHHHHHH	not soluble
MTDKLPLALFLMGPTASGKTELAIRLRQKFPVEIISVDSALIYKGMDIGTAKPDERELSLAPHRLIDILDPSESYSAADFRRDALQAMDDIVAEGKIPLLVGGTMLYYKALLEGLSPLPAANPEIRQQIEQEALTKGWSVLHDELKEIDPVSAARIHPNDPQRLSRALEVYRISGKTLTELTQTKGESLPYRVKQFAIAPKDRAELHRRIELRFDKMMEAGFEEEMKALYARKDLHPDLPSIRCVGYRQMWEYLDGECTRDEAVFRGVCATRQLAKRQITWLRSWDDLTWLDSDNIEQALETMSEAIASDLEHHHHHH	soluble
MRTPLSSVSPQLVQRFHELGFTPSSIRNFLGRPGFAAISRGEPASVLYAMRENEDSDFYPLIATFILHRPVAAEALHRVLGGSLTDQLTETGVLEIVDASKAYLTAKIDIRWLELEDDLFWVFSDTDASMIADHVPGKDHVLGVGAASLSL	not soluble
MVAEITAPKSMGKVLGYNFSKVTAGNASVILTSSMSVDANGETNFERALTDMDMRIPSGIRTKKTVFHCSLNPHPDDRLTTEQLQDIAREYMEKMGYGKQPYIVFKHNDIAREHIHIVSLRVDSYGKKLPYKFEARRSKRITDELERKYGLIPSGNRRSRHETHAENVLKTADVKQGDVRRQIAAVVRAVLKRYAFRSLGEMNLLLARYHIVAEEVRKEYKGKRYDGLVYAITDDAGEKRMIPLHAGKIGRGTGYAAVVRHFEKSKALIKEKAPMLRNAIIEVMQSSPDKERFSEEMKKRGIDVHIRQNEQGRIYGITFISDEAGIAANGSRLGKGYSAHVFNDYFLGGENPFLDYRRQEIRELPTVRSAPEMLPEAETGDDCYDEPVRTDESGIVVHGIDYKELAFQRKLRNRRHKQDITGKRRT	not soluble
MGHHHHHHSHMEAPPVTMMPVTGGTINMMEYLLQGSVLDHSLESLIHRLRGLCDNMEPETFLDHEMVFLLKGQQASPFVLRARRSMDRAGAPWHLRYLGQPEMGDKNRHALVRNCVDIATSENLTDFLMEMGFRMDHEFVAKGHLFRKGIMKIMVYKIFRILVPGNTDSTEALSLSYLVELSVVAPAGQDMVSDDMKNFAEQLKPLVHLEKIDPKRLM	soluble
IDEKPSDLLLDRIESRFNFDVPRGEGHNTVQAIKAMEEGQAKVFIGLGGNFAQATPDTERTHNAMRNCNLTVHISTKLNRSHLVTGKDALILPCLGRTEIDQQATGPQGVTVEDTFSMVHISFGQLKPRSEHLRSEPAIIAGIANATLGAKPIDWLWAIEDYDRIRDLIADTIPGFTDFNHKLKHPGGFHLVNPAAERRWNTPSGKAQFSSSELPKQLISEAILEKGQKPDLILQTMRSHDQYNTTLYGLNDRYRGVFGMREVLFINEADIRKLGFEPGDKVDMVSLWEDGVERRVSGFTLVAYDVPAGQAAAYYPETNPLVPLDSYGDRTFTPTSKFIAIKLEKSTSNKIALVETE	not soluble
MGSDKIHHHHHHMIKQVNPHFKEFLFDWNQKFQFLVGGYGSSKSYHVALKIVLKLLREKRTALVIREVYDTHRDSTFSLFDELVSDLKLDHIVRCVSSPMQIRFSNGSRIIFKGMDKPAKLKSINNISLIWIEECSEVKYEGFKELLGRLRHPTLPLHMILSTNPVGEDNWTFKHFFKDDREKRFVLDDKELYEKRIIVSNDTYYHHSTADDNLFLPESYVQQLEELKEYDPDLYRIARKGHFGVNGIRVLPQFEERPHEEVMTAISNINRPLKRVGMDFGFVESYNAVVRVAVDHEKKYLYIYWEYYKNGLTDDKTAEELKEFAETKELIKADSAEPKTIRYFQQHGFNMVGARKYQGSRLQYTKKIKRFRKIICSDRCENTIYELKPLAYATDKLGNIIEDEFTIDPHTLSAIWYALDDYEVTDLKEESKGRPQRSRPGRR	not soluble
MGSDKIHHHHHHMFAITGITGQVGGVVARALLAAGKDVRAVVRSAAKGAQWKEQGCEIAVAEMSDTQALSGAFSGVDGVFILLPPNFDPSPDFAESRHLVGTLRDALKQANPPKVVCLSTIGAQAAQPNLLQQLGYMEQQLGSLPMPIAFLRAGWFIENAAWDVEPARTAGVIPSFLQPLDKPVPMVATADVGRVAASMLQQAWTGKRIVELEGPRRITPNDLANTFARLLGKDVRMETVPRDTWEALFKSQGMKNPVPRMQMLDGFNEGWIEFETPDQTIKGNVTLETVLQSLIERVG	not soluble
MPVRYSGFDYDGCVGVTNLINIVAQNPKLAQRIRETSNYYTKEVALIASNRQSDRDDKRNARSNGNGSCFIQIQKLCTDLGMEFDPFLLADAYNLVPAGTSLHEATNPANGAKIQNGWLHDKSKASLVYAHMQRASSLEAREQIDYFFYDDREDILEGLYQFFSANPELIPSNVTMHLVKYACSRENVHTMDNYKIPVQGKGFTNPDYVKTIKAFGDKAIENARDVYDIDGKEINAAGVRQAKYNCNFEFEANKLQPMKFVNNFNSPAELIKAHEQAIEKIKLGAFELYKAKINVITTLSNEQKVFLIRAKAQQWNLLCDEGQWNNPIFTLQAIMAEKSDRFFLPQYAFTAKMLIKNYQEARENSKDGSRFWEQINAFIKSMNALKDPMRNAQSIFEVFKKNSYSVKAVDGFVKKVVEVMNALMDKYPQRSTTEMVACMRILESNLQKMVNFFSLVDRLITIYRGCTTAGLNFNKILTVVREALEEMKMITDSGDNYSTTLIDLDKVITAANNRLESLTYPKEYSTKNFHSQESYKVVGAYLCMQSQLIQKLDTKASTALAI	not soluble
MKPIDRFSYLKNNRVSQDTSSLVQCYLPIIGQEALSLYLYTISFWDNGRKEYLFSSILNHLNFGMDRLIKSLKILSAFNLLTLYQKGDVYQLALHAPLSSQDFLGHPVYRRLLEKKIGDVAVEDLKVESADGEEIPVSLNQVFPELAELGSQEDLGLKKKVANDFDLEHFRQLMARDGLRFADEQSDVLNLFAIAEEKKWTWFETYQLAKSTAVSQVISTKRMREKIAQKPVSSDFSLKEATIIKEAKSKTALQFLAEIKQTRKGTITQTERELLQQMAGLGLLDEVINIILLLTFNKVDSANINEKYAMKVANDYAYQKIHSAEEAVLRIRDRGQKAKTQKQNQTAPEKTNVPKWSNPEYKNETSEETRLELERKKQELLARLEKGGD	not soluble
KVKFTEEEDLKLQQLVMRYGAKDWIRISQLMITRNPRQCRERWNNYINPALRTDPWSPEEDMLLDQKYAEYGPKWNKISKFLKNRSDNNIRNRWMMIARHRAKHQKS	soluble
MSTPDDPVIHSPPSIGAAPGMNGYHGSGVKLEESSGACGSPDDGLLDSSEESRRRQKTCRVCGDHATGYNFNVITCESCKAFFRRNALRPKEFKCPYSEDCEINSVSRRFCQKCRLRKCFTVGMKKEWILNEEQLRRRKNSRLNNTGTCNKRSQPGNQQSPQGPNQQPHLSPHHPGVAIYPPQPQRPLTINPMDNQMMHHMQANRPNAMPQLISPPGAQPYPLTSPVGSSASDSPPNRSLTMMHNGEKSPDGYDPNIMAHRAPPPSFNNRPKMDSGQVVLSTEEYKQLLSRIPGAQVPGLMNEEEPINKRAAYNCNGHPMPAETTPPYSAPMSDMSLSRHNSTSSGTEKNHMTHSTVSAIPGNSAQNHFDIASFGMGIVTATGGGDAAEEMYKRMNMFYENCIQSALDSPENQEPKPQEAMIPKEEYMTPTHGFQYQSDPYQVPPAERNINYQLNAAELKALDAVREAFYGMDDPMEQGRQMQSFLKANKTPADIMNIMDVTMRRFVKVAKGVPAFREVSQEGKFSLLKGGMIEMLTVRGVTRYDASTNSFKTPTIKGQNVSVNVDDMFAKLNANAQAQKAKCLEFFGFFDEEIKKNELAVYLVMLAVLFSVRSDPPMNENDVRIVTERHNHFMSLLNRYLESLFGEQARRIFERIPKALGLLNEIARNAGMLFMGTVRSGEAEELPGEFFKIK	not soluble
